Each substance was assayed against PRRSV-2 nucleocapsid (N) protein with Myc tag (assay: ELISA). Settings: mutated N-His as coating antigen; N-Myc added; parent: est. 0.97; read off a plot.

Substance	response
PRRSV-2 nucleocapsid (N) protein with His tag S105A; T108A; Q109A	0.2 OD450nm
PRRSV-2 nucleocapsid (N) protein with His tag Q109A	0.7 OD450nm
PRRSV-2 nucleocapsid (N) protein with His tag S105A	0.28 OD450nm
PRRSV-2 nucleocapsid (N) protein with His tag T108A	1 OD450nm

From paper PMC10804987
